According to patent publication US10260068B2, “Prophylactic agent and therapeutic agent for fibrodysplasia ossificans progressiva” (Sumitomo Dainippon Pharma Co., Ltd., priority 2014, dated 2019):

T1: FOP patient-derived ACVR1 (Homo sapiens, UniProt Q04771, R206H)
T1 construct: The patient cells were confirmed to be cells having a typical FOP-associated mutation in the ACVR1 gene; endogenous in cells; host or cells: mesenchymal stem cell-like cells differentiated from an FOP patient-derived iPS cell line
T1 sequence (Q04771 21-509 R206H): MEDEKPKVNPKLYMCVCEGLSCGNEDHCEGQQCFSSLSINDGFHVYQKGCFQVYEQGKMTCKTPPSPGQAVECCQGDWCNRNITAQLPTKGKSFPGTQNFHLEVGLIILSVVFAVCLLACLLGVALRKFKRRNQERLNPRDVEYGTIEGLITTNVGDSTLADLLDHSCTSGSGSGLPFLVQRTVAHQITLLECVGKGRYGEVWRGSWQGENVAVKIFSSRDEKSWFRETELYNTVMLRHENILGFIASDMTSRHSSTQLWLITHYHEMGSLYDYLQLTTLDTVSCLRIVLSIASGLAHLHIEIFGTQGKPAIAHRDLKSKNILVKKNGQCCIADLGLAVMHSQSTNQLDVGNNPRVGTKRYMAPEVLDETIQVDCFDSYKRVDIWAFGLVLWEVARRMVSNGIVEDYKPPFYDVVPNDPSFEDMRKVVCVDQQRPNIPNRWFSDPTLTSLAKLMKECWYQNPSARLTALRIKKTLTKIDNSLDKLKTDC

B1: BMP-7: Recombinant Human BMP-7 (R&D Systems); cytokine of the BMP family (protein)
chain: STGSKQRSQNRSKTPKNQEALRMANVAENSSSDQRQACKKHELYVSFRDLGWQDWIIAPEGYAAYYCEGECAFPLNSYMNATNHAIVQTLVHFINPETVPKPCCAPTQLNAISVLYFDDSSNVILKKYRNMVVRACGCH

Columns and labels:
[1] = target: T1, FOP patient-derived ACVR1; test: Luciferase reporter (BMP responsive sequence) transcription activity via ACVR1 in FOP patient derived cells; format: cell-based; details: ligand 1, 10, 100 ng/mL, 16 hours, significant at 10 and 100 ng/mL vs untreated group
Excerpt: Following the method of Yamanaka et al. (Cell, 2007, 131 (5), […]), FOP patient-derived iPS cells (hereunder also referred to as “patient-derived iPS cell line”) were established. The patient cells were confirmed to be cells having a typical FOP-associated mutation in the ACVR1 gene. The mutation is a substitution of the 206th arginine residue of the amino acid sequence of ACVR1 (the amino acid sequence listed as SEQ ID NO: 10) with a histidine residue. Next, for use as a control, an iPS cell line with the ACVR1 gene mutation repaired to the normal type (wild type) by gene repair by a BAC knockin vector (hereunder also referred to as “gene-corrected iPS cell clone” or “gene-rescued iPS cell clone”) was established.
The patient-derived iPS cell line and gene-corrected iPS cell line were cultured on the matrix of a Matrigel coated plate (trade name: Growth Factor Reduced (GFR)BD Matrigel® by Becton & Dickinson), using mTeSR1 (Stem Cell Technologies) for 2 days under feeder-free conditions. Next, using serum-free medium [F12 Nutrient Mixture (product of Gibco)/Iscove's Modified Dulbecco's Medium (IMDM) (product of Sigma-Aldrich Japan, KK.)/0.5% bovine serum albumin (BSA) (product of Sigma-Aldrich Japan, KK.)/1% Chemically Defined Lipid (CD-Lipid) (product of Gibco, trade name: Chemically Defined Lipid Concentrate)/15 μg/mL apotransferrin (product of Sigma-Aldrich Japan, KK., trade name: apo-Transferrin human)/7 μg/mL insulin (product of Wako Pure Chemical Industries, Ltd., trade name: Insulin, Human, recombinant)/0.45 mM 1-Thioglycerol (product of Sigma-Aldrich Japan, KK.)] with addition of 10 μM SB-431542 (product of Selleck Chemicals) and 1 μM CHIR99021 (product of Wako Pure Chemical Industries, Ltd.), the patient-derived iPS cell line and gene-corrected iPS cell line were further cultured for 1 week under feeder-free conditions for differentiation to neural crest cells. […]
After mixing Firefly luciferase reporter plasmid having the BMP responsive sequence in the promoter region (J. Biol. Chem., 2002, 277(7), 4883-4891) and a plasmid having a nucleic acid sequence coding for Renilla luciferase downstream from CMV promoter, as an internal standard (product of Promega Corp., trade name: phRL-CMV Vector), FuGene® HD (Promega Corp.) was used for transfection into the mesenchymal stem cell-like cells. […] Next, the luciferase activity was measured according to the protocol provided with a Dual-Glo Luciferase Assay System (product of Promega Corp.). The luminescence was detected using an EnVision Multilabel Counter (product of Perkin-Elmer). […]

SMAD1/5/8 [2] = test: SMAD1/5/8 phosphorylation by Western blotting in gene-corrected clone derived cells; format: cell-based, human; details: 10 and 100 ng/mL activin A or 100 ng/mL BMP-7, 60 minutes
Procedure: Mesenchymal stem cell-like cells from a patient iPS cell line and a gene-corrected iPS cell clone were each prepared by the same method as Example 1. Culturing was conducted for 60 minutes with addition of 10 ng/mL and 100 ng/mL of human activin A or 100 ng/mL of human BMP-7 to the mesenchymal stem cell-like cells. The cells were then solubilized with 300 μL of a dissolving solution (70 mM Tris-HCl buffer solution, pH 6.8, 11.2% glycerol, 3% sodium dodecyl sulfate), and a cell extract was prepared. The amount of phosphorylated SMAD1/5/8 and the amount of total SMAD1/5/8 in the obtained cell extract were quantified by Western blotting. As the primary antibody for phosphorylated SMAD1/5/8 there was used rabbit anti-phosphorylated SMAD1/5/8 antibody [product of Cell Signaling Tech., trade name: Phospho-Smad1 (Ser463/465)/Smad5 (Ser463/465)/Smad8 (Ser426/428) Antibody (Rabbit)], and as the primary antibody for total SMAD1/5/8 there was used rabbit anti-total SMAD1/5/8 antibody [product of Santa Cruz Biotechnology, trade name: Smad1/5/8 Antibody (N-18)-R (Rabbit)]. The secondary antibody used was horseradish peroxidase conjugated anti-rabbit antibody (product of Cell Signaling Tech., trade name: Anti-rabbit IgG, HRP-linked Antibody). […]

SMAD1/5/8 [3] = test: SMAD1/5/8 phosphorylation by Western blotting in FOP patient derived cells; format: cell-based, human; details: for amount of total SMAD1/5/8: Western blotting, 60 minutes treatment, FOP patient derived and gene-corrected clone derived cells
Procedure: Mesenchymal stem cell-like cells from a patient iPS cell line and a gene-corrected iPS cell clone were each prepared by the same method as Example 1. Culturing was conducted for 60 minutes with addition of 10 ng/mL and 100 ng/mL of human activin A or 100 ng/mL of human BMP-7 to the mesenchymal stem cell-like cells. The cells were then solubilized with 300 μL of a dissolving solution (70 mM Tris-HCl buffer solution, pH 6.8, 11.2% glycerol, 3% sodium dodecyl sulfate), and a cell extract was prepared. The amount of phosphorylated SMAD1/5/8 and the amount of total SMAD1/5/8 in the obtained cell extract were quantified by Western blotting. As the primary antibody for phosphorylated SMAD1/5/8 there was used rabbit anti-phosphorylated SMAD1/5/8 antibody [product of Cell Signaling Tech., trade name: Phospho-Smad1 (Ser463/465)/Smad5 (Ser463/465)/Smad8 (Ser426/428) Antibody (Rabbit)], and as the primary antibody for total SMAD1/5/8 there was used rabbit anti-total SMAD1/5/8 antibody [product of Santa Cruz Biotechnology, trade name: Smad1/5/8 Antibody (N-18)-R (Rabbit)]. The secondary antibody used was horseradish peroxidase conjugated anti-rabbit antibody (product of Cell Signaling Tech., trade name: Anti-rabbit IgG, HRP-linked Antibody). The substrate used for chemiluminescence was ECL Prime (product of GE Healthcare), and ChemiDocXRSPlus (product of Bio-Rad Laboratories, Inc.) was used for the detection.

Row | Molecule | transcription activity via ACVR1 (firefly/Renilla luciferase activity, BMP responsive sequence) [1] | phosphorylation of SMAD1/5/8 (SMAD1/5/8 [2]) | phosphorylation of SMAD1/5/8 (SMAD1/5/8 [3]; FOP patient derived cells, 10 and 100 ng/mL activin A, 60 minutes) | amount of total SMAD1/5/8 (SMAD1/5/8 [3])
1 | human activin A: Recombinant Human/Mouse/Rat Activin A (R&D Systems); homodimer of inhibin βA chains | significantly increased | no phosphorylation of SMAD1/5/8 was induced | induced | No significant change
2 | B1 | increased in a concentration-dependent manner | occurred | – | No significant change
